According to patent US20220017622A1 (Pfizer, published 2022):
Numbering of substitutions follows the chain as printed.

T1: human B7-H4 on cells (human, UniProt Q7Z7D3 25-282)
T1 sequence (looked up): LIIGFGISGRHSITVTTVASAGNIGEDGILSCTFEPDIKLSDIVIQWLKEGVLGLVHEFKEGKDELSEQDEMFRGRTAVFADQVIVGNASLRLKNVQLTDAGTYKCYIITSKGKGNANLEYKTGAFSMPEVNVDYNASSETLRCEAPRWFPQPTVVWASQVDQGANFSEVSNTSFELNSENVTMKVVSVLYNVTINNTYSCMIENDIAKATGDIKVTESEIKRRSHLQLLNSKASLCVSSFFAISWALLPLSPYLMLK

T2: human B7-H4 extracellular domain (human, UniProt Q7Z7D3 29-258)
T2 construct: For SPR it says only human B7-H4 ECD; also called Hu B7-H4 ECD; huB7-H4 ECD
T2 sequence: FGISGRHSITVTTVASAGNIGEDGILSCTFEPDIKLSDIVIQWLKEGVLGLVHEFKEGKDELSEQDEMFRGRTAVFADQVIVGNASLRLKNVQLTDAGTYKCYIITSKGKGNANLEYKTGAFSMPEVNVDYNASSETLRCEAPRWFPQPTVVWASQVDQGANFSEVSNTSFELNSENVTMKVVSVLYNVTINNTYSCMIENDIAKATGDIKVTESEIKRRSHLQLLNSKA

B1: B7-H4xCD3 bispecific antibody 1168 (bispecific antibody, IgG2)
heavy 1: EVQLLESGGGLVQPGGSLRLSCAASGFTFSSYAMSWVRQAPGKGLEWVSAISGGGGSTYYADSVKGRFTISRDNSKNTLYLQMNSLRAEDTAVYYCARDIQWYGESTLFDYWGQGTLVTVSSASTKGPSVFPLAPCSRSTSESTAALGCLVKDYFPEPVTVSWNSGALTSGVHTFPAVLQSSGLYSLSSVVTVPSSNFGTQTYTCNVDHKPSNTKVDKTVERKCEVECPECPAPPVAGPSVFLFPPKPKDTLMISRTPEVTCVVVAVSHEDPEVQFNWYVDGVEVHNAKTKPREEQFNSTFRVVSVLTVVHQDWLNGKEYKCKVSNKGLPSSIEKTISKTKGQPREPQVYTLPPSREEMTKNQVSLTCEVKGFYPSDIAVEWESNGQPENNYKTTPPMLDSDGSFFLYSKLTVDKSRWQQGNVFSCSVMHEALHNHYTQKSLSLSPG
light 1: DIQMTQSPSSLSASVGDRVTITCRASQSTRSWLAWYQQKPGKAPKLLIYKASSLESGVPSRFSGSGSGTDFTLTISSLQPEDFATYYCQQYGSYSRTFGQGTKVEIKRTVAAPSVFIFPPSDEQLKSGTASVVCLLNNFYPREAKVQWKVDNALQSGNSQESVTEQDSKDSTYSLSSTLTLSKADYEKHKVYACEVTHQGLSSPVTKSFNRGEC
heavy 2: EVQLVESGGGLVQPGGSLRLSCAASGFTFSDYYMTWVRQAPGKGLEWVAFIRNQARGYTSDHNPSVKGRFTISRDNAKNSLYLQMNSLRAEDTAVYYCARDRPSYYVLDYWGQGTTVTVSSASTKGPSVFPLAPCSRSTSESTAALGCLVKDYFPEPVTVSWNSGALTSGVHTFPAVLQSSGLYSLSSVVTVPSSNFGTQTYTCNVDHKPSNTKVDKTVERKCRVRCPRCPAPPVAGPSVFLFPPKPKDTLMISRTPEVTCVVVAVSHEDPEVQFNWYVDGVEVHNAKTKPREEQFNSTFRVVSVLTVVHQDWLNGKEYKCKVSNKGLPSSIEKTISKTKGQPREPQVYTLPPSREEMTKNQVSLTCLVKGFYPSDIAVEWESNGQPENNYKTTPPMLDSDGSFFLYSRLTVDKSRWQQGNVFSCSVMHEALHNHYTQKSLSLSPGK
light 2: DIQMTQSPSSLSASVGDRVTITCTSSQSLFNVRSQKNYLAWYQQKPGKAPKLLIYWASTRESGVPSRFSGSGSGTDFTLTISSLQPEDFATYYCKQSYDLFTFGGGTKVEIKRTVAAPSVFIFPPSDEQLKSGTASVVCLLNNFYPREAKVQWKVDNALQSGNSQESVTEQDSKDSTYSLSSTLTLSKADYEKHKVYACEVTHQGLSSPVTKSFNRGEC
notes: Chains 1-2: B7-H4 arm; chains 3-4: CD3 arm; IgG2
B2: B7-H4xCD3 bispecific antibody 0999 (bispecific antibody, IgG2)
heavy 1: B1 heavy 1
light 1: B1 light 1 with M4L, S10T, T29I, Y36F, S56G, D70E, E81D, G92N
heavy 2: B1 heavy 2
light 2: B1 light 2
notes: as for B1
B3: B7-H4xCD3 bispecific antibody 1169 (bispecific antibody, IgG2)
heavy 1: B1 heavy 1
light 1: B1 light 1 with Y36H
heavy 2: B1 heavy 2
light 2: B1 light 2
notes: as for B1
B4: B7-H4xCD3 bispecific antibody 1170 (bispecific antibody, IgG2)
heavy 1: B1 heavy 1
light 1: B1 light 1 with Y36L
heavy 2: B1 heavy 2
light 2: B1 light 2
notes: as for B1
B5: B7-H4xCD3 bispecific antibody 0077 (bispecific antibody)
heavy 1: QVQLQQWGAGLLKPSETLSLTCALYGGSFSGYYWNWIRQPPGKGLEWIGEINHSGSANYNPSLKSRVTISVDTSKNQFSLRLSSVTAADTAVYYCARGLYNWNVDRWGQGTLVTVSSASTKGPSVFPLAPCSRSTSESTAALGCLVKDYFPEPVTVSWNSGALTSGVHTFPAVLQSSGLYSLSSVVTVPSSNFGTQTYTCNVDHKPSNTKVDKTVERKCEVECPECPAPPVAGPSVFLFPPKPKDTLMISRTPEVTCVVVAVSHEDPEVQFNWYVDGVEVHNAKTKPREEQFNSTFRVVSVLTVVHQDWLNGKEYKCKVSNKGLPSSIEKTISKTKGQPREPQVYTLPPSREEMTKNQVSLTCEVKGFYPSDIAVEWESNGQPENNYKTTPPMLDSDGSFFLYSKLTVDKSRWQQGNVFSCSVMHEALHNHYTQKSLSLSPGK
light 1: not shown
heavy 2: B1 heavy 2
light 2: B1 light 2
notes: also called anti-B7-H4 clone 19D3
B6: B7-H4xCD3 bispecific antibody 0068 (bispecific antibody, IgG2)
heavy 1: EVQLLESGGGLVQPGGSLRLSCAASGFTFSSYAMSWVRQAPGKGLEWVSAISGGGGSTYYADSVKGRFTISRDNSKNTLYLQMNSLRAEDTAVYYCARDIQWFGESTLFDYWGQGTLVTVSSASTKGPSVFPLAPCSRSTSESTAALGCLVKDYFPEPVTVSWNSGALTSGVHTFPAVLQSSGLYSLSSVVTVPSSNFGTQTYTCNVDHKPSNTKVDKTVERKCEVECPECPAPPVAGPSVFLFPPKPKDTLMISRTPEVTCVVVAVSHEDPEVQFNWYVDGVEVHNAKTKPREEQFNSTFRVVSVLTVVHQDWLNGKEYKCKVSNKGLPSSIEKTISKTKGQPREPQVYTLPPSREEMTKNQVSLTCEVKGFYPSDIAVEWESNGQPENNYKTTPPMLDSDGSFFLYSKLTVDKSRWQQGNVFSCSVMHEALHNHYTQKSLSLSPGK
light 1: B1 light 1 with M4L, S10T, T29I, Y36F, S56G, D70E, E81D, G92N
heavy 2: B1 heavy 2
light 2: B1 light 2
notes: Chains 1-2: B7-H4 arm; chains 3-4: CD3 arm; IgG2 EEE/RRR; also called anti-B7-H4 clone 37D4
B7: B7-H4 antibody 0571 (antibody, human IgG1, kappa, V domains shown)
VH: EVQLLESGGGLVQPGGSLRLSCAASGFTFSSYAMSWVRQAPGKGLEWVSAISGGGGSTYYADSVKGRFTISRDNSKNTLYLQMNSLRAEDTAVYYCARDIQWFGESTLFDYWGQGTLVTVSS
VL: DIQMTQSPSSLSASVGDRVTITCRASQSTRSWLAWHQQKPGKAPKLLIYKASSLESGVPSRFSGSGSGTDFTLTISSLQPEDFATYYCQQYGSYSRTFGQGTKVEIKR
B8: B7-H4 antibody 0572 (antibody, human IgG1, kappa, V domains shown)
VH: B7 VH
VL: B7 VL with H36L
B9: B7-H4 antibody 1113 (antibody, human IgG1, kappa, V domains shown)
VH: B7 VH with F103Y
VL: B7 VL with H36Y, S56G
B10: B7-H4 antibody 1115 (antibody, human IgG1, kappa, V domains shown)
VH: B7 VH with F103Y
VL: B7 VL with H36Y
B11: B7-H4 antibody 1116 (antibody, human IgG1, kappa, V domains shown)
VH: B7 VH with F103Y
VL: B7 VL
B12: B7-H4 antibody 1117 (antibody, human IgG1, kappa, V domains shown)
VH: B7 VH with F103Y
VL: B7 VL with H36L
B13: B7-H4 antibody 0274 (antibody, human IgG1, kappa, V domains shown)
VH: B7 VH
VL: B7 VL with T29I, H36F, S56G, G92N

Legend:
[1] = molecular target: T1, human B7-H4 on cells; experiment: cell-based or functional assay
[2] = molecular target: T1, human B7-H4 on cells; experiment: flow cytometry on MX-1 cells, 37 C
[3] = molecular target: T3, human CD3 on primary human T cells (human, UniProt P07766 23-207; P04234 22-171); experiment: flow cytometry on primary human T cells, 37 C
T3 construct: whole, on cells; On cells the whole CD3/TCR complex is present

[4] = molecular target: T4, human CD3 (delta/epsilon heterodimer) (human, UniProt P07766 23-126; P04234 22-105); experiment: SPR 25 C; CD3 delta/epsilon on anti-His chip, bispecific analyte
T4 construct: captured on an anti-His chip, so it carries a His tag; also called huCD3

[5] = molecular target: T5, cyno CD3 (delta/epsilon heterodimer) (cyno, UniProt Q95LI5 22-117; Q95LI8 22-105); experiment: as above
T5 construct: also called cyCD3

[6] = molecular target: T4, human CD3 (delta/epsilon heterodimer); experiment: SPR 37 C; CD3 delta/epsilon on anti-His chip, bispecific analyte
[7] = molecular target: T5, cyno CD3 (delta/epsilon heterodimer); experiment: as above
[8] = molecular target: T2, human B7-H4 extracellular domain; experiment: competition ELISA on coated huB7-H4 ECD; competitor biotinylated 0058 (by series, not given)
Wherever T cell mediated tumor cell killing, MDA-MB-468 is given: unit not given here.
Wherever T cell mediated tumor cell killing, OVCAR3-Luc is given: unit not given here.
Wherever T cell mediated tumor cell killing, T47D is given: unit not given here.

T3 sequence (P07766 23-207, chain 1 of 2): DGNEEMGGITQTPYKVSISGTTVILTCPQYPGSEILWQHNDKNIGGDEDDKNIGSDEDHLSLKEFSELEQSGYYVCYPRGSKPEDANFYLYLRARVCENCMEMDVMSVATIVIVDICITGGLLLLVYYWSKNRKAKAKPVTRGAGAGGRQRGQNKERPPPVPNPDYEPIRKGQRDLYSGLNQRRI
T3 sequence (P04234 22-171, chain 2 of 2): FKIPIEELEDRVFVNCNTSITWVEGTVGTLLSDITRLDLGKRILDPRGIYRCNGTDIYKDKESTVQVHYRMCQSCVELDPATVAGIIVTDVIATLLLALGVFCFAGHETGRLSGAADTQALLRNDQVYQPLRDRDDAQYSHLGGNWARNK
T4 sequence (P07766 23-126, stated change not applied, chain 1 of 2): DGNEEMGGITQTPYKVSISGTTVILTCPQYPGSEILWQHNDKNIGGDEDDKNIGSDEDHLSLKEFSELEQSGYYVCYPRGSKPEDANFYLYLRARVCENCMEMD
T4 sequence (P04234 22-105, stated change not applied, chain 2 of 2): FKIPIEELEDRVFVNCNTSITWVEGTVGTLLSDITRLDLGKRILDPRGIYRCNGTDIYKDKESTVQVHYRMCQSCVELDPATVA
T5 sequence (Q95LI5 22-117, stated change not applied, chain 1 of 2): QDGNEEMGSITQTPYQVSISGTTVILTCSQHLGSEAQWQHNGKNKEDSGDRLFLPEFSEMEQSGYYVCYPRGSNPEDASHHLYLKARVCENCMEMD
T5 sequence (Q95LI8 22-105, stated change not applied, chain 2 of 2): as the sequence (P04234 22-105, stated change not applied, chain 2 of 2) above, with I5V, N15K, I20V, S32T, D33N, I34N, T64A, S74N, V83L counted along it

Binder	T cell mediated tumor cell killing EC50, HCC1954-Luc [1] [nM]	T cell mediated tumor cell killing, OVCAR3-Luc [1]	T cell mediated tumor cell killing, T47D [1]	EC50 [2] [nM]	EC50 [3] [nM]	IC50 [8] [nM]	further results
B1	2160	360	1910	13.1	5.56	–	–
B2	277	90	258	3.9	9.77	–	–
B3	975	190	818	10	5.22	–	–
B4	595	130	444	6.88	5.51	–	–
B5	93	–	–	–	–	–	Kd [4]: 12.7 nM; koff [4]: 0.00536 s⁻¹; kon [4]: 423000 M⁻¹ s⁻¹; Kd [5]: 13.7 nM; koff [5]: 0.00504 s⁻¹; kon [5]: 369000 M⁻¹ s⁻¹
B6	284	79	566	–	–	–	Kd [4]: 13.2 nM; koff [4]: 0.00553 s⁻¹; kon [4]: 420000 M⁻¹ s⁻¹; Kd [5]: 13.5 nM; koff [5]: 0.00506 s⁻¹; kon [5]: 374000 M⁻¹ s⁻¹; Kd [6]: 63 nM; koff [6]: 0.0349 s⁻¹; kon [6]: 554000 M⁻¹ s⁻¹; Kd [7]: 69 nM; koff [7]: 0.0349 s⁻¹; kon [7]: 506000 M⁻¹ s⁻¹; T cell mediated tumor cell killing, MDA-MB-468 [1]: 332
B7	–	–	–	–	–	2.1	–
B8	–	–	–	–	–	1.7	–
B9	–	–	–	–	–	1	–
B10	–	–	–	–	–	0.42	–
B11	–	–	–	–	–	0.16	–
B12	–	–	–	–	–	0.15	–
B13	–	–	–	–	–	4.2	–
